Measurements taken from patent US20250059270A1 (SESEN BIO, published 2025).
Substitutions are numbered along the chain they refer to. Names and notes keep the numbering of the source. One block for each binder: values may come before it.

Key:
[1] = molecular target: T1, rabbit IL-6 (rabbit, UniProt Q9MZR1 27-241, limits assumed); assay: statement in the rabbit PK example; no assay named
T1 sequence (looked up): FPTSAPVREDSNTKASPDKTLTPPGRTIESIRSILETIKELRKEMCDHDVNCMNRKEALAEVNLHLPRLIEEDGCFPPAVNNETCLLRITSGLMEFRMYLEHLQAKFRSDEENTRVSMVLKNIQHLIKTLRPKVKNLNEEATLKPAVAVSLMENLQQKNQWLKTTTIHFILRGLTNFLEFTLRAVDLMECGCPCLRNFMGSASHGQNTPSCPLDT

[2] = molecular target: T2, human IL-6 (human, UniProt P05231 30-212); assay: cell-based or functional assay
[3] = molecular target: hyper IL-6; assay: cell-based or functional assay
[4] = molecular target: T2, human IL-6; assay: cell-based or functional assay; remark: listed apart in the source
[5] = molecular target: T2, human IL-6; assay: yeast surface display of Fab, flow cytometry (APC-A = bound biotinylated IL-6, FITC-A = display) after overnight competition with 2 µM IL-6
[6] = molecular target: T3, mouse IL-6 (mouse, UniProt P08505 25-211); assay: monovalent affinity, method not stated
T3 construct: also called rodent IL-6
T3 sequence (looked up): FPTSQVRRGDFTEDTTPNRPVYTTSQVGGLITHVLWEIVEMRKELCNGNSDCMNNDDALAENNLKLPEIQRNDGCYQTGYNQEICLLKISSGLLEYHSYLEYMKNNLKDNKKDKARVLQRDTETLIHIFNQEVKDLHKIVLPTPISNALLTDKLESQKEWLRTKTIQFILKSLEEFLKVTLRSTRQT

[7] = molecular target: T4, rat IL-6 (rat, UniProt P20607 25-211); assay: monovalent affinity, method not stated
T4 construct: also called rodent IL-6
T4 sequence (looked up): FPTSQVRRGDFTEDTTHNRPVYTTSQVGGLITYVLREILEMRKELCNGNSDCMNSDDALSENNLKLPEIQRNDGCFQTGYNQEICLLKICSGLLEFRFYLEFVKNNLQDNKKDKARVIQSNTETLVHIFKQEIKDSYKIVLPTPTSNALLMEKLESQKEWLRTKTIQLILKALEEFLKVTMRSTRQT

[8] = molecular target: T5, dog IL-6 (dog, UniProt P41323 21-207); assay: monovalent affinity, method not stated
T5 construct: also called canine IL-6
T5 sequence (looked up): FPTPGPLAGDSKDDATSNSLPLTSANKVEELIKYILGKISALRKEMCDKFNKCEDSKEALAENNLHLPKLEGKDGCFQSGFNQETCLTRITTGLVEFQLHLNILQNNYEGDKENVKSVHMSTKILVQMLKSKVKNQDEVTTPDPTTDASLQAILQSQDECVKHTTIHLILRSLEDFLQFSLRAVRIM

[9] = molecular target: T1, rabbit IL-6; assay: monovalent affinity, method not stated
[10] = molecular target: T2, human IL-6; assay: yeast system (yeast display, biotinylated human IL-6); original humanized h64, before affinity maturation; yeast system
[11] = molecular target: T2, human IL-6; assay: functional epitope mapping by ELISA

B1: EBI-029 IgG2 (antibody)
heavy: QVQLVQSGAEVKKPGSSVKVSCKASGYALSNYLIEWVRQAPGQGLEWMGVITPGSGTINYAQKFQGRVTITADESTSTAYMELSSLRSEDTAVYYCARSRWDPLYYYALEYWGQGTTVTVSSASTKGPSVFPLAPCSRSTSESTAALGCLVKDYFPEPVTVSWNSGALTSGVHTFPAVLQSSGLYSLSSVVTVPSSNFGTQTYTCNVDHKPSNTKVDKTVERKCCVECPPCPAPPVAGPSVFLFPPKPKDTLMISRTPEVTCVVVDVSHEDPEVQFNWYVDGVEVHNAKTKPREEQFNSTFRVVSVLTVVHQDWLNGKEYKCKVSNKGLPAPIEKTISKTKGQPREPQVYTLPPSREEMTKNQVSLTCLVKGFYPSDIAVEWESNGQPENNYKTTPPMLDSDGSFFLYSKLTVDKSRWQQGNVFSCSVMHEALHNHYTQKSLSLSPGK
light: DIVMTQSPDSLAVSLGERATINCRASESVDNYGIPFMNWYQQKPGQPPKLLIYAASNRGSGVPDRFSGSGSGTDFTLTISSLQAEDVAVYYCQQSEEVPLTFGQGTKLEIKRTVAAPSVFIFPPSDEQLKSGTASVVCLLNNFYPREAKVQWKVDNALQSGNSQESVTEQDSKDSTYSLSSTLTLSKADYEKHKVYACEVTHQGLSSPVTKSFNRGEC
notes: also called 018IgG2
binding result [1]: no binding
IC50, HEK-Blue IL6 reporter cells, 20 pM IL-6 [2]: 47 pM

B2: EBI-031 (EBI-030 IgG2-H311A) (antibody)
heavy: B1 heavy with A28V, S30P, I51T, S55G, H311A
light: B1 light
notes: also called EBI-030-H311A
binding result [1]: no binding
IC50, HEK-Blue IL6 reporter cells, 20 pM IL-6 [2]: 0.6 pM
IC50, trans-signaling, HEK-Blue IL6 cells, 200 pM hyper IL-6 [3]: 32 pM
IC50, cis-signaling, HEK-Blue IL6 cells, 20 pM free IL-6 [4]: 14.2 pM
IC50, fold less than that of EBI-029, HEK-Blue IL6 [4]: > 75 fold
IC90, fold less than that of EBI-029, HEK-Blue IL6 [4]: ~350 fold
fold decrease in IC50 compared with EBI-029, HEK-Blue IL6 [4]: ~50 fold
fold decrease in IC90 compared with EBI-029, HEK-Blue IL6 [4]: > 100 fold
fold greater potency than tocilizumab, cis-signaling, HEK-Blue IL6 cells [4]: > 900 fold

B4: EBI-029 IgG2-H311A (antibody)
heavy: B1 heavy with H311A
light: B1 light
notes: also called EBI-029-H311A
binding result [1]: no binding

B6: 018 Fab (Fab, V domains shown)
VH: QVQLVQSGAEVKKPGSSVKVSCKASGYALSNYLIEWVRQAPGQGLEWMGVITPGSGTINYAQKFQGRVTITADESTSTAYMELSSLRSEDTAVYYCARSRWDPLYYYALEYWGQGTTVTVSS
VL: DIVMTQSPDSLAVSLGERATINCRASESVDNYGIPFMNWYQQKPGQPPKLLIYAASNRGSGVPDRFSGSGSGTDFTLTISSLQAEDVAVYYCQQSEEVPLTFGQGTKLEIKR
notes: Fab with CK and IgG1 CH1 domains; also called Fab fragment of the h64-1.4 humanized antibody
Kd [6]: > 1000 nM
Kd [7]: > 1000 nM
Kd [8]: > 1000 nM
Kd [9]: > 1000 nM

B7: EBI-030 Fab (A28V/S30P/I51T/S55G) (Fab, V domains shown)
VH: B6 VH with A28V, S30P, I51T, S55G
VL: B6 VL
notes: IgG1 Fab; also called A28V/S30P/I51T/S55G (EBI-030)
Fold increase in binding/display over wt [5]: 4 fold

B10: EBI-029 Fab (020 Fab) (Fab, V domains shown)
VH: B6 VH
VL: B6 VL
notes: 018 Fab heavy chain with DKTHT added at the C-terminus; also called the 020 molecule; WT (EBI-029)
binding result [1]: no binding

B11: EBI-029 Fab variant S30P/I51T/S55G (Fab, V domains shown)
VH: B6 VH with S30P, I51T, S55G
VL: B6 VL
Fold increase in binding/display over wt [5]: 2.52 fold

B12: murine 64 antibody (hybridoma 64, subclone 64.58) (antibody, V domains shown)
VH: QVQLQQSGAELVRPGTSVKVSCKASGYAFSNYLIEWVKQRPGQGLEWIGVITPGSGTINYNEKFKGKAVLTADKSSSTVYMQLSSLTSDDSAVYFCAKSRWDPLYYYALEYWGQGTSVTVSS
VL: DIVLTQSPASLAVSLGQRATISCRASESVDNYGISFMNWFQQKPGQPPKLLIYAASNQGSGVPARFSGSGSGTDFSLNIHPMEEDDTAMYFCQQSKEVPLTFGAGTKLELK
notes: Murine monoclonal from a hybridoma; also called m64
binding result [11]: binds

Now from value to binder:

binding result [1]: no binding
IC50, HEK-Blue IL6 reporter cells, 20 pM IL-6 (EBI-030 CHO, stable CHO pool) [2]: 1.4 pM
IC50, HEK-Blue IL6 reporter cells, 20 pM IL-6 (EBI-030 from HEK-6E cells) [2]: 0.9 pM
IC50, fold less than that of EBI-029, HEK-Blue IL6 (EBI-030 produced in HEK cells) [4]: > 50 fold
IC90, fold less than that of EBI-029, HEK-Blue IL6 (EBI-030 produced in HEK cells) [4]: ~4000 fold
fold decrease in IC50 compared with EBI-029, HEK-Blue IL6 [4]: ~50 fold
fold decrease in IC90 compared with EBI-029, HEK-Blue IL6 [4]: > 100 fold
B3: EBI-030 IgG2 (antibody)
heavy: B1 heavy with A28V, S30P, I51T, S55G
light: B1 light

Fold increase in binding/display over wt [5]: 1.92 fold
B5: EBI-029 Fab variant I51T/S55G (Fab, V domains shown)
VH: B6 VH with I51T, S55G
VL: B6 VL

Kd [10]: 0.343 nM
B8: h64 IgG (humanized 64, human IgG1) (antibody, V domains shown)
VH: B6 VH with L29F
VL: DIVMTQSPDSLAVSLGERATINCRASESVDNYGISFMNWYQQKPGQPPKLLIYAASNQGSGVPDRFSGSGSGTDFTLTISSLQAEDVAVYYCQQSKEVPLTFGQGTKLEIK
notes: Expressed as inline fusions with the human IgG1 constant domains; also called the original humanized molecule; original h64 antibody

Fold increase in binding/display over wt [5]: 3.1 fold
B9: EBI-029 Fab variant A28V/I51T/S55G (Fab, V domains shown)
VH: B6 VH with A28V, I51T, S55G
VL: B6 VL
